From publication PMC4587768 come the findings set out here.

Experiment [1] has as its target BG505 SOSIP-sCD4 complex (HIV-1 (strain BG505) | human) (UniProt Q2N0S6). The experiment is described as follows: cryo-EM structure.
The target is the same in experiment [2]. The experiment is described as follows: negative-stain single-particle EM.
In experiment [3] the target is BG505 SOSIP.664 soluble HIV-1 Env trimer (HIV-1 (strain BG505)) (UniProt Q2N0S6). The experiment is described as follows: cryo-EM structure.
The target is the same in experiment [4]. The experiment is described as follows: negative-stain single-particle EM.

In the case of 17b Fab (CD4-induced antibody), the stoichiometry N (Fabs per trimer) in experiment [1] came out at 3. Moreover, the stoichiometry N (copies per trimer) in experiment [2] came to 3.

Regarding “sCD4 (CD4 domains 1 and 2) (domain or fragment)”, the stoichiometry N (sCD4 per trimer) in experiment [3] stood at 3. Besides, the stoichiometry N (copies per trimer) in experiment [4] stood at 3.
